The values below come from patent EP2245064B1 (MEDIMMUNE LIMITED, dated 2014).

Where a chain is given by its changes, count along the chain named. Read-outs that look alike come from different tables or passages of the source.

Assay [1] deals with antibody used for epitope mapping in Example 5 (not named). As to the kind of experiment: HTRF competition vs biotinylated human IL-4Rα/Fc for Eu-cryptate antibody. (In general: Time-resolved FRET reads energy transfer from a long-lived donor to a nearby acceptor.)
For assay [2] the target is unchanged. The assay is described as above. This is another data set of the same source.
The target in assay [3] is human IL-4Rα on TF-1 cells (human) (UniProt P24394). The assay can be described thus: cell-based or functional assay.
Assay [4] concerns the target T1, human IL4Rα/Fc (R and D Systems 604-4R) (human, UniProt P24394 26-232).
T1 construct: Bought product; also called human IL4Rα-Fc receptor; IL-4Rα/Fc (R&D systems Cat. No. 604-4R-050)
T1 sequence (looked up): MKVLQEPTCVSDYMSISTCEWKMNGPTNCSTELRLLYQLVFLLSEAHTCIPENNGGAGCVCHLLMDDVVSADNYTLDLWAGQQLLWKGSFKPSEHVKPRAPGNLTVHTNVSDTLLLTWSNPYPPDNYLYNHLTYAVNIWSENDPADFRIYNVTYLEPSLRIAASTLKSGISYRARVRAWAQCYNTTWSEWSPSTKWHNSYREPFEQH
The assay can be described thus: HTRF receptor-ligand competition, scFv vs biotinylated human IL4.

B1: MoD1HuD2IL-4Rα (receptor)
chain: IKVLGEPTCFSDYIRTSTCEWFLDSAVDCSSQLCLHYRLMFFEFSENLTCIPRNSASTVCVCHMEMNRPVQSDRYQMELWAEHRQLWQGSFSPSGHVKPRAPGNLTVHTNVSDTLLLTWSNPYPPDNYLYNHLTYAVNIWSENDPADFRIYNVTYLEPSLRIAASTLKSGISYRARVRAWAQCYNTTWSEWSPSTKWHNSYREPFNPAFLYKVVGAADYKDDDDKAAHHHHHHHHHH
Take B1: in assay [1], the % inhibition at 1000nM was 34%.

B2: MoLoop1HuIL-4Rα (receptor)
chain: MKVLQEPTCVSDYIRTSTCEWKMNGPTNCSTELRLLYQLVFLLSEAHTCIPENNGGAGCVCHLLMDDVVSADNYTLDLWAGQQLLWKGSFKPSEHVKPRAPGNLTVHTNVSDTLLLTWSNPYPPDNYLYNHLTYAVNIWSENDPADFRIYNVTYLEPSLRIAASTLKSGISYRARVRAWAQCYNTTWSEWSPSTKWHNSYREPFNPAFLYKVVGAADYKDDDDKAAHHHHHHHHHH
In the case of B2, the IC50 in assay [1] stood at 1.9 nM.

B3: EM25 (receptor)
chain: B2 chain with I14M, R15S, T16I, A46N, H47L
B3: the IC50 in assay [1] turned out to be 0.448 nM. Compared with the last molecule, the IC50 is about 4.2-fold lower.

B4: MoLoop5HuIL-4Rα (receptor)
chain: B2 chain with I14M, R15S, T16I, A180S, C182I, Y183L, N184T, T185G
In assay [1], B4 gave an IC50 of 1.4 nM.

B5: MoLoop4HuIL-4Rα (receptor)
chain: B2 chain with I14M, R15S, T16I, S119N, P121L, P124S, D125N
The molecule B5 registered an IC50 in assay [1] of 0.663 nM.

B6: EM20 (receptor)
chain: B2 chain with I14M, R15S, T16I, V40M, L42F, L43F, A46N, H47L
On to B6, for which the IC50 in assay [1] was 3.8 nM.

B7: MoLoop3HuIL-4Rα (receptor)
chain: B2 chain with I14M, R15S, T16I, L64E, D66N, D67R, V68P, S70Q, A71S, N73R
Consider B7, for which the results for the % inhibition at 1000nM in assay [1] and in assay [2] were 58% and 45%, respectively.

B8: Antibody 24 (PGL) IgG (antibody, from another filing, V domains shown)
VH: QVQLVQSGAEVKKPGASVKVSCKASGYAFTSYYMHWVRQAPGQGLEWMGIINPRGGSTSYAQKFQGRVTMTRDTSTSTVYMELSSLRSEDTAVYYCARGKYWMYDWGKGTLVTVSS
VL: QSVLTQPPSVSAAPGQKVTISCSGGSSNIGNSYVSWYQQLPGTAPKLLIYDNNKRPSGIPDRFSGSKSGTSATLGITGLQTGDEADYFCGTWDTSTVWEWPFGTGTKLTVL
In assay [3], B8 yielded an IC50, IL-4 induced TF-1 cell proliferation of 0.0153 nM and an IC50, IL-13 induced TF-1 cell proliferation of 0.055 nM.

B9: Antibody 1 scFv (scFv, V domains shown)
VH: B8 VH with V37A, R54S, Y101W, M103L, Y104D, D105Y
VL: B8 VL with G75A, F88Y, T96L, V97S, W98A, E99N, W100Y, P101V
For B9, the Ki in assay [4] was found to be 12 nM.

B10: EM19 (receptor)
chain: MKVLQEPTCVSDYMSISTCEWKMNGPTNCSTELRLLYQLMFLEFSENLTCIPENNGGAGCVCHLLMDDVVSADNYTLDLWAGQQLLWKGSFKPSEHVKPRAPGNLTVHTNVSDTLLLTWSNPYPPDNYLYNHLTYAVNIWSENDPADFRIYNVTYLEPSLRIAASTLKSGISYRARVRAWAQCYNTTWSEWSPSTKWHNSYREPFNPAFLYKVVGAADYKDDDDKAAHHHHHHHHHH
Consider B10, for which the IC50 in assay [1] stood at 4.5 nM.

B11: EM22 (receptor)
chain: B10 chain with L42F, N47A
For the molecule B11, the IC50 in assay [1] came out at 19 nM.

B12: EM21 (receptor)
chain: B10 chain with L42F, F44L
For the molecule B12, the IC50 in assay [1] is 5.7 nM.

B13: EM24 (receptor)
chain: B10 chain with M40V, L42F, N47A, L48H
In assay [1], B13 gave an IC50 of 13 nM.

Usually % inhibition stands for the relative decrease from the control value, in per cent. Read a high % inhibition as a strong effect. One may read the IC50 as the concentration needed to halve the response being measured. Lower therefore signals greater potency. Usually Ki stands for the equilibrium dissociation constant of an inhibitor or competing ligand from its target. Read a high Ki as lower affinity.
